The values that follow come from publication PMC2063504, “Glycerate kinase of the hyperthermophilic archaeon Thermoproteus tenax: new insights into the phylogenetic distribution and physiological role of members of the three different glycerate kinase classes” (BMC Genomics, 2007).

Data set [1] relates to Nc1ncnc2c1ncn2[C@@H]1O[C@H](COP(=O)(O)OP(=O)(O)OP(=O)(O)O)[C@@H](O)[C@H]1O. Put plainly: discontinuous coupled assay (enolase, pyruvate kinase, lactate dehydrogenase; NADH). The settings on record: D-glycerate, 20 mM Mg2+, pH 7.5, 70 °C. It is filed as biochemical, Thermoproteus tenax.
The subject of another data set is O=C(O)[C@H](O)CO. Described as above. It is filed as biochemical, Thermoproteus tenax. The settings on record: 5 mM ATP, 20 mM Mg2+, pH 7.5, 70 °C, D-glycerate below 0.3 mM (substrate inhibition above).
Data set [2] deals with T1, glycerate kinase (GarK; class II glycerate kinase, MOFRL family) (Thermoproteus tenax, UniProt G4RPE9).
T1 construct: full-length ORF, 398 residues, pET-24a (NdeI/EcoRI), E. coli BL21(DE3), no tag mentioned, conventional purification
Put plainly: coupled assay, effector study. It is filed as biochemical. Conditions: product inhibitor, suggested competitive with ATP; 0.05 mM D-glycerate, 0.05 mM ATP (non-saturating), pH 7.5, 70 °C; mean of two measurements.

The Km is the substrate concentration at which the rate is half of its maximum. By kcat is commonly meant the maximal rate divided by the concentration of active sites. For “glycerate kinase (GarK; class II glycerate kinase, MOFRL family) (Thermoproteus tenax Kra 1)”, the Michaelis-Menten constant (Km) came out at 30 ± 10 µM in data set [1] and 20 ± 10 µM with O=C(O)[C@H](O)CO. The kcat in data set [1] amounted to 3.12 s⁻¹; in the data set on O=C(O)[C@H](O)CO, 3.57 s⁻¹.

In the case of `Nc1ncnc2c1ncn2[C@@H]1O[C@H](COP(=O)(O)OP(=O)(O)O)[C@@H](O)[C@H]1O` [ADP], in data set [2], the “% activity of control at 0.1 mM” value was 39.1%.
